Here are results for two molecules from patent CN114397452A (dated 2022).

One experiment has as its target SARS-CoV RBD蛋白 (SARS-CoV, UniProt P59594 306-527).
Another experiment concerns the target 冠状病毒RaTG13 RBD蛋白 (coronavirus RaTG13).

B1: IMCAS-364 scFv (scFv, V domains shown)
VH: QVQLQESGGGVVQPGRSLRLSCAASGFTFSRYGMHWVRQAPGKGLEWVAVIWYDGSNKYYADSVKGRFTISRDNSKNTLYLQMNSLRADDTAVYYCAKQEGTYCSGGSCYSGLDYWGQGTLVTVSS
VL: not shown
What is called Kd is the free concentration of one partner at which half of the binding sites on the other are occupied at equilibrium, for simple one-to-one binding. A high value points to lower affinity. In turn, B1 displayed a Kd with SARS-CoV RBD蛋白 of 8.17 nM.

B2: IMCAS-72 scFv (scFv, V domains shown)
VH: QVQLVESGGGLVQPGGSLRLSCAASGFTFSSYGMHWVRQAPGKGLEWVAVISYDGSDKYYADSVKGRFTISRDNSKNTLYLQMNSLRAEDTAVYYCARDRDRFGDQGGWFDPWGQGTLVTVSS
VL: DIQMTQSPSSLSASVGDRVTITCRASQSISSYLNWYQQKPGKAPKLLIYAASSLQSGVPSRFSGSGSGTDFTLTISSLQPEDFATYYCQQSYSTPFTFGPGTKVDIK
On to B2, for which, in the experiment with 冠状病毒RaTG13 RBD蛋白, binding was characterised by a dissociation constant (Kd) of 6.21 nM.
